Our source for the percent of parent and pulldown efficiency (% of wild-type) (% of wild-type) values is paper PMC7988105.

For test [1], the target named is NRXN1β (lacking SS4) Fc fusion used as bait in the pull-down. Nature of the test: pull-down. The settings on record: chain shown with the change;; parent: est. 100; read off a plot.
For test [2], the target named is PTPδA3B– extracellular domain fused to Fc (mouse). The test is described as follows: pull-down; soluble recombinant proteins mixed at 0.03 μM each in HBSS, 2 mM CaCl2, 1 mM MgCl2, 3 h, then Protein A-Sepharose 1 h, room temperature; NLGN3-His6 detected with anti-His.
PTPδA3B– extracellular domain fused to Fc (mouse), sequence (Q64487 other isoform, or with tags, fused parts or gaps mutant): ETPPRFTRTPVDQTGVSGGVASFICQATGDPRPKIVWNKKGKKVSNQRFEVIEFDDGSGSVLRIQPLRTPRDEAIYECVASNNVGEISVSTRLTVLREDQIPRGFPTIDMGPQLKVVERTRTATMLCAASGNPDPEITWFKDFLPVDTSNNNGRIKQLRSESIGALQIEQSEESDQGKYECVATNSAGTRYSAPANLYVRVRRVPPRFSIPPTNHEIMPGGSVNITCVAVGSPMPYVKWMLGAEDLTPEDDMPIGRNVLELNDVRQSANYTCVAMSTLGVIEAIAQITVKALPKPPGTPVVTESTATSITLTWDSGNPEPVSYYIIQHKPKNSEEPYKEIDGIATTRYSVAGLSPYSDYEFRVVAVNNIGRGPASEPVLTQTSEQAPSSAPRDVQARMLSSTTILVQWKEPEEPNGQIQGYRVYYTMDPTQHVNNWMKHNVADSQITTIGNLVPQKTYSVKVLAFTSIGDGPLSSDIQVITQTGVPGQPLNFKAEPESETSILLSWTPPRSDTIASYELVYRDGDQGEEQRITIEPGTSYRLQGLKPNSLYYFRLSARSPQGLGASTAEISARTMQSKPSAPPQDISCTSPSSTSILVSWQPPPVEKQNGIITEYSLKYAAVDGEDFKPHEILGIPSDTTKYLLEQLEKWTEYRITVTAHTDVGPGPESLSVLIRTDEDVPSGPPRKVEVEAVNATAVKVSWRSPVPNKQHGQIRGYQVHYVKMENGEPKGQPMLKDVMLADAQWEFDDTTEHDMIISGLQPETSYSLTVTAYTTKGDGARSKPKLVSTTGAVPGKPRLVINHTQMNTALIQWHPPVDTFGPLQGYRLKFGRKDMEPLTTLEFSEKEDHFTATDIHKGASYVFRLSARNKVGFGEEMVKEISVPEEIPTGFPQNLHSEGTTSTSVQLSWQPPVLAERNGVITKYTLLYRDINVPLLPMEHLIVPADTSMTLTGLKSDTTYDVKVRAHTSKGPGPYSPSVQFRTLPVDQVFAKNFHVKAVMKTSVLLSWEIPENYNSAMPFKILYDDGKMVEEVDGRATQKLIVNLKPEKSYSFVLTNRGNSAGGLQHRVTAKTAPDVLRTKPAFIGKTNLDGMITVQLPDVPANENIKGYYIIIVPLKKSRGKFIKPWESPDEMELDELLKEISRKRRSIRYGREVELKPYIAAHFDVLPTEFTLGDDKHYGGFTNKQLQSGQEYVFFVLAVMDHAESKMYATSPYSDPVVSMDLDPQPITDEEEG

NRXN1β (lacking SS4) Fc fusion used as bait in the pull-down, sequence (chain, as listed by the source): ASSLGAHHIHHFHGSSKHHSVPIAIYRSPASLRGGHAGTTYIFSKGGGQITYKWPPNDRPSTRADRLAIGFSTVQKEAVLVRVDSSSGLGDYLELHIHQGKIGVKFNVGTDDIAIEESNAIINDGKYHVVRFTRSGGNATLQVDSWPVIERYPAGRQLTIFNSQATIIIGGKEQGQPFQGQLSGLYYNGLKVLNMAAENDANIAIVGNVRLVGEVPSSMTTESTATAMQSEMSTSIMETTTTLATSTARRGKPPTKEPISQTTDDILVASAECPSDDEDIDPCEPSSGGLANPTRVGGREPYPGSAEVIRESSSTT

B1: mouse NLGN3 ECD (residues 35–684) with C-terminal His6 tag, Q8BYM5 H279A; S280A; E281A (protein)
chain: QAPAPTVNTHFGKLRGARVPLPSEILGPVDQYLGVPYAAPPIGEKRFLPPEPPPSWSGIRNATHFPPVCPQNIHTAVPEVMLPVWFTANLDIVATYIQEPNEDCLYLNVYVPTEDGSGAKKQGEDLADNDGDEDEDIRDSGAKPVMVYIHGGSYMEGTGNMIDGSVLASYGNVIVITLNYRVGVLGFLSTGDQAAKGNYGLLDQIQALRWVSENIAFFGGDPRRITVFGSGIGASCVSLLTLSHAAAGLFQRAIIQSGSALSSWAVNYQPVKYTSLLADKVGCNVLDTVDMVDCLRQKSAKELVEQDIQPARYHVAFGPVIDGDVIPDDPEILMEQGEFLNYDIMLGVNQGEGLKFVEGVVDPEDGVSGTDFDYSVSNFVDNLYGYPEGKDTLRETIKFMYTDWADRDNPETRRKTLVALFTDHQWVEPSVVTADLHARYGSPTYFYAFYHHCQSLMKPAWSDAAHGDEVPYVFGVPMVGPTDLFPCNFSKNDVMLSAVVMTYWTNFAKTGDPNKPVPQDTKFIHTKANRFEEVAWSKYNPRDQLYLHIGLKPRVRDHYRATKVAFWKHLVPHLYNLHDMFHYTSTTTKVPPPDTTHSSHITRRPNGKTWSTKRPAISPAYSNENAPGSWNGDQDAGPLLVENPRDYSTE
As to B1, the percent of parent in test [1] was 22 % WT.

B2: mouse NLGN3 ECD (residues 35–684) with C-terminal His6 tag, Q8BYM5 D362A; E372A; N375A (protein)
chain: QAPAPTVNTHFGKLRGARVPLPSEILGPVDQYLGVPYAAPPIGEKRFLPPEPPPSWSGIRNATHFPPVCPQNIHTAVPEVMLPVWFTANLDIVATYIQEPNEDCLYLNVYVPTEDGSGAKKQGEDLADNDGDEDEDIRDSGAKPVMVYIHGGSYMEGTGNMIDGSVLASYGNVIVITLNYRVGVLGFLSTGDQAAKGNYGLLDQIQALRWVSENIAFFGGDPRRITVFGSGIGASCVSLLTLSHHSEGLFQRAIIQSGSALSSWAVNYQPVKYTSLLADKVGCNVLDTVDMVDCLRQKSAKELVEQDIQPARYHVAFGPVIDGDVIPADPEILMEQGAFLAYDIMLGVNQGEGLKFVEGVVDPEDGVSGTDFDYSVSNFVDNLYGYPEGKDTLRETIKFMYTDWADRDNPETRRKTLVALFTDHQWVEPSVVTADLHARYGSPTYFYAFYHHCQSLMKPAWSDAAHGDEVPYVFGVPMVGPTDLFPCNFSKNDVMLSAVVMTYWTNFAKTGDPNKPVPQDTKFIHTKANRFEEVAWSKYNPRDQLYLHIGLKPRVRDHYRATKVAFWKHLVPHLYNLHDMFHYTSTTTKVPPPDTTHSSHITRRPNGKTWSTKRPAISPAYSNENAPGSWNGDQDAGPLLVENPRDYSTE
As to B2, in test [1], the percent of parent came to 18 % WT.

B3: mouse NLGN3 ECD (residues 35–684) with C-terminal His6 tag, Q8BYM5 M614I; F615S (protein)
chain: QAPAPTVNTHFGKLRGARVPLPSEILGPVDQYLGVPYAAPPIGEKRFLPPEPPPSWSGIRNATHFPPVCPQNIHTAVPEVMLPVWFTANLDIVATYIQEPNEDCLYLNVYVPTEDGSGAKKQGEDLADNDGDEDEDIRDSGAKPVMVYIHGGSYMEGTGNMIDGSVLASYGNVIVITLNYRVGVLGFLSTGDQAAKGNYGLLDQIQALRWVSENIAFFGGDPRRITVFGSGIGASCVSLLTLSHHSEGLFQRAIIQSGSALSSWAVNYQPVKYTSLLADKVGCNVLDTVDMVDCLRQKSAKELVEQDIQPARYHVAFGPVIDGDVIPDDPEILMEQGEFLNYDIMLGVNQGEGLKFVEGVVDPEDGVSGTDFDYSVSNFVDNLYGYPEGKDTLRETIKFMYTDWADRDNPETRRKTLVALFTDHQWVEPSVVTADLHARYGSPTYFYAFYHHCQSLMKPAWSDAAHGDEVPYVFGVPMVGPTDLFPCNFSKNDVMLSAVVMTYWTNFAKTGDPNKPVPQDTKFIHTKANRFEEVAWSKYNPRDQLYLHIGLKPRVRDHYRATKVAFWKHLVPHLYNLHDISHYTSTTTKVPPPDTTHSSHITRRPNGKTWSTKRPAISPAYSNENAPGSWNGDQDAGPLLVENPRDYSTE
Take B3: the percent of parent in test [1] amounted to 115 % WT.

B4: NLGN3 ECD R448C mutant (R/C; equivalent to human R451C) with His6 tag, Q8BYM5 35-684 (domain or fragment)
chain: QAPAPTVNTHFGKLRGARVPLPSEILGPVDQYLGVPYAAPPIGEKRFLPPEPPPSWSGIRNATHFPPVCPQNIHTAVPEVMLPVWFTANLDIVATYIQEPNEDCLYLNVYVPTEDGSGAKKQGEDLADNDGDEDEDIRDSGAKPVMVYIHGGSYMEGTGNMIDGSVLASYGNVIVITLNYRVGVLGFLSTGDQAAKGNYGLLDQIQALRWVSENIAFFGGDPRRITVFGSGIGASCVSLLTLSHHSEGLFQRAIIQSGSALSSWAVNYQPVKYTSLLADKVGCNVLDTVDMVDCLRQKSAKELVEQDIQPARYHVAFGPVIDGDVIPDDPEILMEQGEFLNYDIMLGVNQGEGLKFVEGVVDPEDGVSGTDFDYSVSNFVDNLYGYPEGKDTLRETIKFMYTDWADRDNPETRCKTLVALFTDHQWVEPSVVTADLHARYGSPTYFYAFYHHCQSLMKPAWSDAAHGDEVPYVFGVPMVGPTDLFPCNFSKNDVMLSAVVMTYWTNFAKTGDPNKPVPQDTKFIHTKANRFEEVAWSKYNPRDQLYLHIGLKPRVRDHYRATKVAFWKHLVPHLYNLHDMFHYTSTTTKVPPPDTTHSSHITRRPNGKTWSTKRPAISPAYSNENAPGSWNGDQDAGPLLVENPRDYSTE
B4: the pulldown efficiency (% of wild-type) (% of wild-type) in test [2] stood at 20.

B5: mouse NLGN3 ECD (residues 35–684) with C-terminal His6 tag, Q8BYM5 M614A; F615A (protein)
chain: QAPAPTVNTHFGKLRGARVPLPSEILGPVDQYLGVPYAAPPIGEKRFLPPEPPPSWSGIRNATHFPPVCPQNIHTAVPEVMLPVWFTANLDIVATYIQEPNEDCLYLNVYVPTEDGSGAKKQGEDLADNDGDEDEDIRDSGAKPVMVYIHGGSYMEGTGNMIDGSVLASYGNVIVITLNYRVGVLGFLSTGDQAAKGNYGLLDQIQALRWVSENIAFFGGDPRRITVFGSGIGASCVSLLTLSHHSEGLFQRAIIQSGSALSSWAVNYQPVKYTSLLADKVGCNVLDTVDMVDCLRQKSAKELVEQDIQPARYHVAFGPVIDGDVIPDDPEILMEQGEFLNYDIMLGVNQGEGLKFVEGVVDPEDGVSGTDFDYSVSNFVDNLYGYPEGKDTLRETIKFMYTDWADRDNPETRRKTLVALFTDHQWVEPSVVTADLHARYGSPTYFYAFYHHCQSLMKPAWSDAAHGDEVPYVFGVPMVGPTDLFPCNFSKNDVMLSAVVMTYWTNFAKTGDPNKPVPQDTKFIHTKANRFEEVAWSKYNPRDQLYLHIGLKPRVRDHYRATKVAFWKHLVPHLYNLHDAAHYTSTTTKVPPPDTTHSSHITRRPNGKTWSTKRPAISPAYSNENAPGSWNGDQDAGPLLVENPRDYSTE
For B5, the percent of parent in test [1] turned out to be 104 % WT.
